“And” between values parts separate entries of the source, which are not always exact repeats. Identical values can stand only once.
B1: Tryptophan synthase alpha chain, P0A877 (parent)
chain: MERYESLFAQLKERKEGAFVPFVTLGDPGIEQSLKIIDTLIEAGADALELGIPFSDPLADGPTIQNATLRAFAAGVTPAQCFEMLALIRQKHPTIPIGLLMYANLVFNKGIDEFYAQCEKVGVDSVLVADVPVEESAPFRQAALRHNVAPIFICPPNADDDLLRQIASYGRGYTYLLSRAGVTGAENRAALPLNHLVAKLKEYNAAPPLQGFGISAPDQVKAAIDAGAAGAISGSAIVKIIEQHINEPEKMLAALKVFVQPMKAATRS

Variants of: B1
Details: Escherichia coli (strain K12); pH 7.8; 25 °C; Urea; CD; Potassium phosphate 10 mM; transition: 3; structure 1WQ5; whole UniProt chain shown

Variant | ddG of mutation (higher = less stable) | denaturant m value | unfolding free energy
L176A | 2.88 kcal/mol and 1.13 kcal/mol | 2.16 kcal/mol/M and 1.01 kcal/mol/M | 3.25 kcal/mol and 3.59 kcal/mol
L127A | 0.73 kcal/mol and 0.55 kcal/mol | 2.55 kcal/mol/M and 1.1 kcal/mol/M | 5.4 kcal/mol and 4.17 kcal/mol
I37A | 1.41 kcal/mol and 3.01 kcal/mol |  | 4.72 kcal/mol and 1.71 kcal/mol
L99A | 1.69 kcal/mol and 2.38 kcal/mol | 2.39 kcal/mol/M and 0.94 kcal/mol/M | 4.44 kcal/mol and 2.34 kcal/mol

From FireProtDB (doi:10.1016/j.jmb.2005.06.006)
